Measurements: paper PMC4515144 (Chemistry & biology, 2015)
*: point of attachment. P‑1 benzyl acid (p-CN) = benzyl acid lacking the N-terminal amino group (p-cyano substituted), replacing Tyr at P-1, N#Cc1ccc(CCC(=O)*)cc1; P‑1 benzyl acid (p-SO2NH2) = p-sulfonamide (SO2NH2) benzyl acid lacking the N-terminal amino group, replacing Tyr P-1; P‑1 benzyl acid (m-CH3) = m-methyl benzyl acid lacking the N-terminal amino group, replacing Tyr P-1; P‑1 benzyl acid (m-Cl) = m-chloro benzyl acid lacking the N-terminal amino group, replacing Tyr P-1; P‑1 benzyl acid (m-F) = m-fluoro benzyl acid lacking the N-terminal amino group, replacing Tyr P-1; P‑1 benzyl acid (p-NH2) = benzyl acid at P-1 lacking the N-terminal amino group, replacing Tyr P-1; Propanoyl(3-(4-F-phenyl)) = O=C(CCc1ccc(F)cc1)*

How the values were obtained:
[1] = cited from earlier work
[2] = Plasma stability by LC-MS; conditions: rat plasma, 37 °C; 123B7 versus YSA, 123B4 versus YSA-9mer
[3] = target: EphA2-LBD (residues 27-200) (Homo sapiens, UniProt P29317); assay: 1D 1H-aliph NMR binding assay, rank ordering; conditions: 10 μM EphA2-LBD, 100 μM compound; arbitrary scale 1 to 5
[4] = mice; ref Singla et al., 2002; Zhang et al., 2013; cited from earlier work
[5] = target: EphA2 ligand binding domain (residues 27-200) (UniProt P29317 27-200); assay: NMR titration
Sequence of EphA2 ligand binding domain (residues 27-200) (P29317 27-200): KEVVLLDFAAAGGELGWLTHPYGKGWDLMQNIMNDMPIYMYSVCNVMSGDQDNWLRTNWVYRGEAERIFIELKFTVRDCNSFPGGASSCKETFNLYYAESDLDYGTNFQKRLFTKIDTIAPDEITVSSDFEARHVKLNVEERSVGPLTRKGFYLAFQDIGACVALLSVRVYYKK

Sequence of EphA2-LBD (residues 27-200) (P29317 27-200): as above

Q: Which half-life in plasma [1] does the source give for ySAYPDSVP-Nle-Hsr-S [dYNH] here?
A: > 1 h

Q: For CSCC[C@H](NC(=O)[C@H](CCSC)NC(=O)[C@@H]1CCCN1C(=O)[C@@H](NC(=O)[C@H](CO)NC(=O)[C@H](CC(=O)O)NC(=O)[C@@H]1CCCN1C(=O)[C@H](Cc1ccc(O)cc1)NC(=O)[C@H](C)NC(=O)[C@H](CO)NC(=O)COc1ccc(F)c(Cl)c1)C(C)C)C(=O)N[C@@H](CO)C(N)=O [123B7], which “plasma stability versus corresponding non-optimized peptide” value [2] is on record?
A: significantly improved peptide stability

Q: For “120H5 ({P‑1 benzyl acid (p-NH2)}-SAYPDSVP-NH2)”, which “Rank ordering by NMR” value [3] is on record?
A: 1

Q: With CC(=O)O[C@H]1C(=O)[C@@]2(C)[C@H]([C@H](OC(=O)c3ccccc3)[C@]3(O)C[C@H](OC(=O)[C@H](O)[C@@H](NC(=O)c4ccccc4)c4ccccc4)C(C)=C1C3(C)C)[C@]1(OC(C)=O)CO[C@@H]1C[C@@H]2O [PTX, paclitaxel] as the molecule, how does the “single dose MTD” value [4] read?
A: < 30 mg/kg

Q: Which “Rank ordering by NMR” value [5] does the source give for {P‑1 benzyl acid (p-NH2)}-SAYPDSVP-NH2 [120H5] here?
A: 1 rank, arbitrary scale 1-5

Q: For {P‑1 benzyl acid (m-F)}-SAYPDSVP-NH2 [120G7], which “Rank ordering by NMR” value [5] is on record?
A: 2 rank, arbitrary scale 1-5

Q: Which “Rank ordering by NMR” value [5] does the source give for {Propanoyl(3-(4-F-phenyl))}-SAYPDSVP-NH2 [120F11] here?
A: 2 rank, arbitrary scale 1-5

Q: Which “Rank ordering by NMR” value [5] does the source give for {P‑1 benzyl acid (m-Cl)}-SAYPDSVP-NH2 [120G8] here?
A: 4 rank, arbitrary scale 1-5

Q: Which “Rank ordering by NMR” value [5] does the source give for {P‑1 benzyl acid (m-CH3)}-SAYPDSVP-NH2 [123A12] here?
A: 4 rank, arbitrary scale 1-5

Q: With {P‑1 benzyl acid (p-SO2NH2)}-SAYPDSVP-NH2 [120H8] as the molecule, how does the “Rank ordering by NMR” value [5] read?
A: 3 rank, arbitrary scale 1-5

Q: Which “Rank ordering by NMR” value [5] does the source give for {P‑1 benzyl acid (p-CN)}-SAYPDSVP-NH2 [120A5] here?
A: 3 rank, arbitrary scale 1-5
